Measured values taken from patent publication US20150086555A1 (THERACLONE SCIENCES, published 2015).

Key:
[1] = biological target: recombinant soluble homotrimeric HA of A/chicken/Vietnam/NCVD-016/08 (H5N1) (Influenza A virus …); assay: trimeric HA microarray, transfection supernatant set 3
[2] = biological target: recombinant soluble homotrimeric HA of A/Anhui/1/05 (H5N1) (Influenza A virus A/Anhui/1/2005(H5N1)); assay: as above
[3] = biological target: recombinant soluble homotrimeric HA of A/Indonesia/5/05 (H5N1) (Influenza A virus …); assay: as above
[4] = biological target: recombinant soluble homotrimeric HA of A/Hong Kong/2108/03 (H9N2) (Influenza A virus A/HK/2108/2003(H9N2)); assay: as above
[5] = biological target: recombinant soluble homotrimeric HA of A/California/4/09 (H1N1) (Influenza A virus …); assay: as above
[6] = biological target: recombinant soluble homotrimeric HA of A/Netherlands/219/03 (H7N7) (Influenza A virus …); assay: as above
[7] = biological target: recombinant soluble homotrimeric HA of A/Wisconsin/67/05 (H3N2) (Influenza A virus …); assay: as above
[8] = biological target: recombinant soluble homotrimeric HA of A/northern shoveler/California/HKWF115/07 (H6) (Influenza A virus A/northern …); assay: as above
[9] = biological target: recombinant soluble homotrimeric HA of A/Japan/305/57 (H2N2) (Influenza A virus A/Japan/305/1957(H2N2)); assay: as above
[10] = biological target: recombinant soluble homotrimeric HA of A/Vietnam/1203/04 (H5N1) (Influenza A virus …); assay: as above
[11] = biological target: recombinant soluble homotrimeric HA of A/Egypt/3300-NAMRU3/08 (H5N1) (Influenza A virus …); assay: as above
[12] = biological target: recombinant soluble homotrimeric HA of A/Solomon Islands/3/06 (H1N1) (Influenza A virus A/Solomon …); assay: as above
[13] = biological target: recombinant soluble homotrimeric HA of A/South Carolina/1/18 (H1N1) (Influenza A virus A/South Carolina/1/18 …); assay: as above
[14] = biological target: recombinant soluble homotrimeric HA of A/duck/Yangzhou/02/05 (H8N4) (Influenza A virus …); assay: as above
[15] = biological target: recombinant soluble homotrimeric HA of A/Hong Kong/1073/99 (H9N2) (Influenza A virus A/Hong Kong/1073/99 …); assay: as above
[16] = biological target: recombinant homotrimeric HA A/Hong Kong/2108/03 H9N2 (Influenza A virus A/HK/2108/2003(H9N2)); assay: protein microarray, purified IgG, trimeric HA
[17] = biological target: recombinant homotrimeric HA A/Vietnam/1203/04 H5N1 (Influenza A virus …); assay: protein microarray, purified IgG, trimeric HA
[18] = biological target: recombinant homotrimeric HA A/Netherlands/219/03 H7N7 (Influenza A virus …); assay: protein microarray, purified IgG, trimeric HA
[19] = biological target: recombinant homotrimeric HA A/northern shoveler/California/HKWF115/07 H6N4 (Influenza A virus A/northern …); assay: protein microarray, purified IgG, trimeric HA
[20] = biological target: recombinant homotrimeric HA A/Indonesia/5/05 H5N1 (Influenza A virus …); assay: protein microarray, purified IgG, trimeric HA
[21] = biological target: recombinant homotrimeric HA A/Egypt/3300-NAMRU3/08 H5N1 (Influenza A virus …); assay: protein microarray, purified IgG, trimeric HA
[22] = biological target: recombinant homotrimeric HA A/South Carolina/1/18 H1N1 (Influenza A virus A/South Carolina/1/18 …); assay: protein microarray, purified IgG, trimeric HA
[23] = biological target: recombinant homotrimeric HA A/Wisconsin/67/05 H3N2 (Influenza A virus …); assay: protein microarray, purified IgG, trimeric HA
[24] = biological target: recombinant homotrimeric HA A/Japan/305/57 H2N2 (Influenza A virus A/Japan/305/1957(H2N2)); assay: protein microarray, purified IgG, trimeric HA
[25] = biological target: recombinant homotrimeric HA A/Solomon Islands/3/06 H1N1 (Influenza A virus A/Solomon …); assay: protein microarray, purified IgG, trimeric HA
[26] = biological target: recombinant homotrimeric HA A/chicken/Vietnam/NCVD-016/08 H5N1 (Influenza A virus …); assay: protein microarray, purified IgG, trimeric HA
[27] = biological target: recombinant homotrimeric HA A/Hong Kong/156/97 H5N1 (Influenza A virus A/Hong Kong/156/97 …); assay: protein microarray, purified IgG, trimeric HA
[28] = biological target: recombinant homotrimeric HA A/California/4/09 H1N1 (Influenza A virus …); assay: protein microarray, purified IgG, trimeric HA
[29] = biological target: recombinant homotrimeric HA A/Anhui/1/05 H5N1 (Influenza A virus A/Anhui/1/2005(H5N1)); assay: protein microarray, purified IgG, trimeric HA
[30] = biological target: recombinant homotrimeric HA A/Hong Kong/1073/99 H9N2 (Influenza A virus A/Hong Kong/1073/99 …); assay: protein microarray, purified IgG, trimeric HA
[31] = biological target: recombinant homotrimeric HA A/swine/Ontario/01911-2/99 H4N6 (Influenza A virus …); assay: protein microarray, purified IgG, trimeric HA
[32] = biological target: recombinant homotrimeric HA A/duck/Yangzhou/02/05 H8N4 (Influenza A virus …); assay: protein microarray, purified IgG, trimeric HA

Row | Binder | Trimeric HA Binding: RLU [16] | Trimeric HA Binding: RLU [17] | Trimeric HA Binding: RLU [18] | Trimeric HA Binding: RLU [19] | Trimeric HA Binding: RLU [20] | Trimeric HA Binding: RLU [21] | Trimeric HA Binding: RLU [22] | Trimeric HA Binding: RLU [23] | Trimeric HA Binding: RLU [24] | Trimeric HA Binding: RLU [25] | Trimeric HA Binding: RLU [26] | Trimeric HA Binding: RLU [27] | Trimeric HA Binding: RLU [28] | Trimeric HA Binding: RLU [29] | Trimeric HA Binding: RLU [30] | also measured
1 | TCN-533 (5256_A17a) (antibody, V domains shown) VH: QVQLVQSGADVKKPGSSVTVSCKASGGSFSNYGINWVRQAPGQGLEWMGGIIPLINAPNYAPKFQGRVTITADMFSNIVSLQLTSLRTDDTAVYYCARRKMTTAIDYWGQGTLVTVSS VL: QPVLTQPPSASASLGASVTLTCTLSSAYSNYKVDWYQQRPGKGPRFVMRVGTGGIVGSKGDGIPDRFSVLGSGLNRYLTIKNIQEEDESDYHCGADHGSGSNFVSPYVFGGGTKLTVL [TCN-533 (5256_A17a), listing 1 of 2 here] |  |  |  |  |  |  |  |  |  |  |  |  |  |  |  | Trimeric HA Binding: RLU [1]: 24600 RLU; Trimeric HA Binding: RLU [2]: 301 RLU; Trimeric HA Binding: RLU [3]: 28300 RLU; Trimeric HA Binding: RLU [4]: 33 RLU; Trimeric HA Binding: RLU [5]: 6880 RLU; Trimeric HA Binding: RLU [6]: 209 RLU; Trimeric HA Binding: RLU [7]: 16100 RLU; Trimeric HA Binding: RLU [8]: 7810 RLU; Trimeric HA Binding: RLU [9]: 18600 RLU; Trimeric HA Binding: RLU [10]: 11700 RLU; Trimeric HA Binding: RLU [11]: 18600 RLU; Trimeric HA Binding: RLU [12]: 15500 RLU; Trimeric HA Binding: RLU [13]: 16400 RLU; Trimeric HA Binding: RLU [14]: 711 RLU; Trimeric HA Binding: RLU [15]: 23800 RLU
2 | TCN-533 (5256_A17a) (antibody, V domains shown) VH: QVQLVQSGADVKKPGSSVTVSCKASGGSFSNYGINWVRQAPGQGLEWMGGIIPLINAPNYAPKFQGRVTITADMFSNIVSLQLTSLRTDDTAVYYCARRKMTTAIDYWGQGTLVTVSS VL: QPVLTQPPSASASLGASVTLTCTLSSAYSNYKVDWYQQRPGKGPRFVMRVGTGGIVGSKGDGIPDRFSVLGSGLNRYLTIKNIQEEDESDYHCGADHGSGSNFVSPYVFGGGTKLTVL [TCN-533 (5256_A17a), listing 2 of 2 here] | 164 RLU | 26900 RLU | 712 RLU | 20400 RLU | 23100 RLU | 20600 RLU | 8670 RLU | 308 RLU | 23400 RLU | 12000 RLU | 5470 RLU | 13200 RLU | 24000 RLU | 5650 RLU | 5810 RLU | 
3 | TCN-556 (5089_K12) (antibody, V domains shown) VH: QVQLVQSGAEVKKPGASVKVSCKASGYTFIGYDMHWVRQAPGQGLEWMGWINAKRGGTNYAQKFQGRVTMTRDTSISTAYMELNSLRSDDTAVYYCARGVGSRTTIFGVLNPEFDYWGQGTLVTVSS VL: QSALTQPPSASGSPGQSVTISCTGSSSDVGGYDYVSWYQQHPGKAPKLLIYEVTKRPSGVPDRFSGSKSGNTASLTVSGLQAEDEADYYCSSYAGNYNHVFGPGTKVTVL | 25600 RLU | 21500 RLU | 21000 RLU | 25000 RLU | 23000 RLU | 24800 RLU | 21000 RLU | 2360 RLU | 25800 RLU | 24300 RLU | 22400 RLU | 18600 RLU | 25800 RLU | 26900 RLU | 995 RLU | Trimeric HA Binding: RLU [31]: 24100 RLU; Trimeric HA Binding: RLU [32]: 18300 RLU
